Test results taken from US20100254982A1 (VIVENTIA BIOTECHNOLOGIES, published 2010).

How the values were obtained:
[1] = target: Glucose transporter 8 (GLUT8), cancer-associated variant expressed on the surface of cancer cells (VB1-050 antigen) (human) (UniProt Q9NY64); assay: flow cytometry saturation curve on antigen-positive cells
[2] = target: Glucose transporter 8 (GLUT8), cancer-associated variant expressed on the surface of cancer cells (VB1-050 antigen) (human) (UniProt Q9NY64); assay: cell-based or functional assay
[3] = target: T1, Glucose transporter 8 (GLUT8), cancer-associated variant expressed on the surface of cancer cells (VB1-050 … (human, UniProt Q9NY64 1-477)); assay: flow cytometry, liver tumor cell lines SK-HEP-1, Hep-G2 (mean of 2)
T1 construct: whole, on cells; Endogenous antigen of human tumor cell lines, identified by immunoprecipitation with VB1-050 and mass spectrometry from HepG2 and MCF-7 membranes; Only L12A and L13A are printed with old and new residues; In the immunoprecipitations the membrane preparations were deglycosylated with N-Glycanase; also called VB1-050Ag; VB1-050 Ag
T1 sequence (looked up): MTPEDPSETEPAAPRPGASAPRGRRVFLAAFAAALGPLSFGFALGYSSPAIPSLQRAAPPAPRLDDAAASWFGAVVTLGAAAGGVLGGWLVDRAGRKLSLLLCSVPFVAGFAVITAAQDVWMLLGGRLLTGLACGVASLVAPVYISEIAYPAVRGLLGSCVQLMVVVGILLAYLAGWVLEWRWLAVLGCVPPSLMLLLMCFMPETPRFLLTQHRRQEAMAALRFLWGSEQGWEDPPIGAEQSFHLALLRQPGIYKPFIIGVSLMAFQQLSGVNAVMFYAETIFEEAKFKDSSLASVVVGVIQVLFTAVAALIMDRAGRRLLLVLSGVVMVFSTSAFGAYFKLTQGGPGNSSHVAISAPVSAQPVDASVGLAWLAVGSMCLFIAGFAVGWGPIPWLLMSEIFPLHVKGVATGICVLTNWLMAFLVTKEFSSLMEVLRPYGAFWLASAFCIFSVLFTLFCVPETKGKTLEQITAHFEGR

[4] = target: T1, Glucose transporter 8 (GLUT8), …; assay: flow cytometry, breast tumor cell lines MCF-7, MDA-MB-231, MDA-MB-435S (mean of 3)
[5] = target: T1, Glucose transporter 8 (GLUT8), …; assay: flow cytometry, colon tumor cell lines HT-29, SW480, WiDr (mean of 3)
[6] = target: T1, Glucose transporter 8 (GLUT8), …; assay: flow cytometry, normal lung cell line NHLF
[7] = target: T1, Glucose transporter 8 (GLUT8), …; assay: flow cytometry, stomach tumor cell lines AGS, NCI-N-87, KATO III (mean of 3)
[8] = target: T1, Glucose transporter 8 (GLUT8), …; assay: flow cytometry titration on A-375 cells, Lineweaver-Burk method
[9] = target: T1, Glucose transporter 8 (GLUT8), …; assay: flow cytometry, head & neck tumor cell lines SCC-15, SCC-25 (mean of 2)
[10] = target: T1, Glucose transporter 8 (GLUT8), …; assay: flow cytometry, cervix tumor cell lines HeLa, C-41, C-33A (mean of 3)
[11] = target: T1, Glucose transporter 8 (GLUT8), …; assay: flow cytometry, normal breast cell line HMEC
[12] = target: T1, Glucose transporter 8 (GLUT8), …; assay: flow cytometry competition on antigen-positive cells; competitor VB6-050 fixed at 250 µg/mL, detected with anti-bouganin antibody
[13] = target: T1, Glucose transporter 8 (GLUT8), …; assay: flow cytometry, prostate tumor cell lines DU-145, PC-3, LNCaP (mean of 3)
[14] = target: T1, Glucose transporter 8 (GLUT8), …; assay: flow cytometry on A-375 cells, surface-bound antibody left after 60 min at 37 °C (internalization experiment)
[15] = target: T1, Glucose transporter 8 (GLUT8), …; assay: flow cytometry on A-375 cells, cells kept on ice for 120 minutes; above negative control human IgG (4B5)
[16] = target: T1, Glucose transporter 8 (GLUT8), …; assay: flow cytometry, endometrium tumor cell lines RL-95-2, HEC-1-A (mean of 2)
[17] = target: T1, Glucose transporter 8 (GLUT8), …; assay: flow cytometry, kidney tumor cell lines Caki-1, A498, ACHN (mean of 3)
[18] = target: T1, Glucose transporter 8 (GLUT8), …; assay: flow cytometry, rectum tumor cell lines Sw837, NCI-H630 (mean of 2)
[19] = target: T1, Glucose transporter 8 (GLUT8), …; assay: flow cytometry, melanoma cell lines A-375, SK-MEL-5, SK-MEL-28 (mean of 3)
[20] = target: T1, Glucose transporter 8 (GLUT8), …; assay: flow cytometry, normal kidney cell line HRE
[21] = target: T1, Glucose transporter 8 (GLUT8), …; assay: flow cytometry, pancreas tumor cell lines PANC-1, BxPC-3, MIA PaCa-2 (mean of 3)
[22] = target: T1, Glucose transporter 8 (GLUT8), …; assay: flow cytometry, normal prostate cell line PrEC
[23] = target: T1, Glucose transporter 8 (GLUT8), …; assay: flow cytometry, normal endothelial cell line HUVEC
[24] = target: T1, Glucose transporter 8 (GLUT8), …; assay: flow cytometry, bladder tumor cell lines UM-UC-3, T24 (mean of 2)
[25] = target: T1, Glucose transporter 8 (GLUT8), …; assay: flow cytometry, ovarian tumor cell lines SK-OV-3, OVCar-3 (mean of 2)
[26] = target: T1, Glucose transporter 8 (GLUT8), …; assay: flow cytometry on A-375 cells, surface-bound antibody left after 120 min at 37 °C (internalization experiment)
[27] = target: T1, Glucose transporter 8 (GLUT8), …; assay: flow cytometry, lung tumor cell lines A-549, NCI-H460, NCI-H69 (mean of 3)

B1: VB6-050 (soluble Fab-de-bouganin fusion protein derived from VB1-050) (Fab, V domains shown)
VH: EVQLLESGGDLVQPGGSLRLSCAASGFTFSNYAMSWVRQAPGKGLEWVSAITPSGGSTNYADSVKGRFTISRDNSQNTLYLQMNSLRVEDTAVYYCGRVPYRSTWYPLYWGQGTLVTVSS
VL: DIQMTQSPSSLSASVGDRVTITCRASQDISNYLAWFQRKPGKAPKSLIYAASSLHSKVPTQFSGSGSGTDFTLTISSLQPEDFATYYCLQYSTYPITFGGGTKVEIK
saturation point [1]: 250 µg/mL
IC50 (MTS cytotoxicity assay, 5 days, antigen-positive cells MB-435S) [2]: 400 nM

B2: VB1-050 monoclonal antibody (antibody, V domains shown)
VH: B1 VH
VL: DIQMTQSPSSLSASVGDRVTITCRASQDISNYLAWFQRKPGKAPKSLIYAASSLHSKVPTQFSGSGSGTDFTLTISSLQPEDFATYYCLQYSTYPITFGGGTKVEIKR
notes: also called VB1-050 IgG; parental IgG
MF (mean fold increase in median fluorescence over control antibody) [3]: 14.6 fold
MF (mean fold increase in median fluorescence over control antibody) [4]: 29.9 fold
MF (mean fold increase in median fluorescence over control antibody) [5]: 13.3 fold
MF (mean fold increase in median fluorescence over control antibody) [6]: 8.7 fold
MF (mean fold increase in median fluorescence over control antibody) [7]: 9.6 fold
Kd [8]: 49 nM
MF (mean fold increase in median fluorescence over control antibody) [9]: 11.4 fold
MF (mean fold increase in median fluorescence over control antibody) [10]: 11.8 fold
MF (mean fold increase in median fluorescence over control antibody) [11]: 3.1 fold
IC50 [12]: 180 µg/mL
MF (mean fold increase in median fluorescence over control antibody) [13]: 19.6 fold
Fold-increase in MF [14]: 49.2 fold
Fold-increase in MF [15]: 129 fold
MF (mean fold increase in median fluorescence over control antibody) [16]: 7 fold
MF (mean fold increase in median fluorescence over control antibody) [17]: 18.4 fold
MF (mean fold increase in median fluorescence over control antibody) [18]: 15.2 fold
MF (mean fold increase in median fluorescence over control antibody) [19]: 22.7 fold
MF (mean fold increase in median fluorescence over control antibody) [20]: 12.5 fold
MF (mean fold increase in median fluorescence over control antibody) [21]: 7.6 fold
MF (mean fold increase in median fluorescence over control antibody) [22]: 2.1 fold
MF (mean fold increase in median fluorescence over control antibody) [23]: 5 fold
MF (mean fold increase in median fluorescence over control antibody) [24]: 9.8 fold
MF (mean fold increase in median fluorescence over control antibody) [25]: 21.7 fold
Fold-increase in MF [26]: 39.3 fold
MF (mean fold increase in median fluorescence over control antibody) [27]: 14.8 fold
